In PMC6570480, “PLK4 promotes centriole duplication by phosphorylating STIL to link the procentriole cartwheel to the microtubule wall” (eLife, 2019):

Molecular target: T1, Myc-GFP-STIL (wild type) phosphorylated in cells by co-expressed kinase active PLK4^Δ24-mCherry (human, UniProt Q15468 1-1287, phosphoserine at 428 and at 1116 (phosphorylated in cells by co-expressed kinase active PLK4^Δ24-mCherry; shown with pS428 and pS1116 antibodies))
T1 construct: STIL, human; Further PLK4 sites may be phosphorylated (84 sites were found in vitro); also called WT STIL; phosphorylated STIL; source: HEK293FT, transfected together with kinase active PLK4^Δ24-mCherry, in lysate; not shown: Myc, N-terminal, kept; GFP, N-terminal, kept
T1 sequence (looked up): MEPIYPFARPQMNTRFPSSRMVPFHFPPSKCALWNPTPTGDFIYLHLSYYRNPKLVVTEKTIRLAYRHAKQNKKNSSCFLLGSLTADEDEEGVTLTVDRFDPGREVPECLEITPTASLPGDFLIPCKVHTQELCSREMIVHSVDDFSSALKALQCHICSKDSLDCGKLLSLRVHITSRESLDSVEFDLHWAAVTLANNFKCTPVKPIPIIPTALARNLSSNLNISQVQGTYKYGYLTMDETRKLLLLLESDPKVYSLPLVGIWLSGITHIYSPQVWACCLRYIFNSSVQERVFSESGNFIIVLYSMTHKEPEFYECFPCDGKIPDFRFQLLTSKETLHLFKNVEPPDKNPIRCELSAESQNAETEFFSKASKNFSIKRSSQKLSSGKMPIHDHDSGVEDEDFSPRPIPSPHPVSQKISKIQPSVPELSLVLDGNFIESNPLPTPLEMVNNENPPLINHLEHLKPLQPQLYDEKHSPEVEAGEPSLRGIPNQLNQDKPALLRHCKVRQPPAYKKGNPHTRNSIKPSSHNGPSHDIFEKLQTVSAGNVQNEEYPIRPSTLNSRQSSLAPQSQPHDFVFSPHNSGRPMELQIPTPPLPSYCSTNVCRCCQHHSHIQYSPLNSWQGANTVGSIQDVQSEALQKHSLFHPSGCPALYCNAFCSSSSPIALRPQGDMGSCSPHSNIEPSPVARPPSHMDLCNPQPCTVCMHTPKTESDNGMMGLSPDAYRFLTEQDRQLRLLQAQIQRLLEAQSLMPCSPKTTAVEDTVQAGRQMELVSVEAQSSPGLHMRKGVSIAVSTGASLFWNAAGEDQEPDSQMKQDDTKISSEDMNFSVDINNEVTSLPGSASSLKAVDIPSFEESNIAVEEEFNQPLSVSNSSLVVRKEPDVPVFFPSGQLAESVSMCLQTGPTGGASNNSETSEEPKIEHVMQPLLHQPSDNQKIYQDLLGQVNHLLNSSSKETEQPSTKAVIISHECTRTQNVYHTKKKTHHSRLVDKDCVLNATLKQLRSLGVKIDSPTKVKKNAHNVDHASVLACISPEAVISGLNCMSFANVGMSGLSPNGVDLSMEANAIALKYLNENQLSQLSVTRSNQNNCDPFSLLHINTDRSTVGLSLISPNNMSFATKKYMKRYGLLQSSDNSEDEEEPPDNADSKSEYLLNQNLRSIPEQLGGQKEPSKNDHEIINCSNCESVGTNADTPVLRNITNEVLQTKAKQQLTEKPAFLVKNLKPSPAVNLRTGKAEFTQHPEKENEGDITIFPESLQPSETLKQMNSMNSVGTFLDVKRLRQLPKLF
Test: co-IP; HEK293FT cells co-transfected, with kinase active or kinase dead PLK4^Δ24-mCherry where stated; lysis buffer 10 mM Tris pH 7.5, 0.1% Triton X-100, 250 mM NaCl, 1 mM EDTA, phosphatase inhibitors; Myc-GFP-STIL captured on beads coupled to GFP-binding protein; immunoblot
Conditions: partners not purified

B1: FLAG-CPAP (natural protein, human, UniProt Q9HC77 1-1338, looked up)
chain: MFLMPTSSELNSGQNFLTQWMTNPSRAGVILNRGFPILEADKEKRAAVDISTSFPIKGTHFSDSFSFINEEDSLLEEQKLESNNPYKPQSDKSETHTAFPCIKKGPQVAACHSAPGHQEENKNDFIPDLASEFKEGAYKDPLFKKLEQLKEVQQKKQEQLKRQQLEQLQRLMEEQEKLLTMVSGQCTLPGLSLLPDDQSQKHRSPGNTTTGERATCCFPSYVYPDPTQEETYPSNILSHEQSNFCRTAHGDFVLTSKRASPNLFSEAQYQEAPVEKNNLKEENRNHPTGESILCWEKVTEQIQEANDKNLQKHDDSSEVANIEERPIKAAIGERKQTFEDYLEEQIQLEEQELKQKQLKEAEGPLPIKAKPKQPFLKRGEGLARFTNAKSKFQKGKESKLVTNQSTSEDQPLFKMDRQQLQRKTALKNKELCADNPILKKDSKARTKSGSVTLSQKPKMLKCSNRKSLSPSGLKIQTGKKCDGQFRDQIKFENKVTSNNKENVTECPKPCDTGCTGWNKTQGKDRLPLSTGPASRLAAKSPIRETMKESESSLDVSLQKKLETWEREKEKENLELDEFLFLEQAADEISFSSNSSFVLKILERDQQICKGHRMSSTPVKAVPQKTNPADPISHCNRSEDLDHTAREKESECEVAPKQLHSLSSADELREQPCKIRKAVQKSTSENQTEWNARDDEGVPNSDSSTDSEEQLDVTIKPSTEDRERGISSREDSPQVCDDKGPFKDTRTQEDKRRDVDLDLSDKDYSSDESIMESIKHKVSEPSRSSSLSLSKMDFDDERTWTDLEENLCNHDVVLGNESTYGTPQTCYPNNEIGILDKTIKRKIAPVKRGEDLSKSRRSRSPPTSELMMKFFPSLKPKPKSDSHLGNELKLNISQDQPPGDNARSQVLREKIIELETEIEKFKAENASLAKLRIERESALEKLRKEIADFEQQKAKELARIEEFKKEEMRKLQKERKVFEKYTTAARTFPDKKEREEIQTLKQQIADLREDLKRKETKWSSTHSRLRSQIQMLVRENTDLREEIKVMERFRLDAWKRAEAIESSLEVEKKDKLANTSVRFQNSQISSGTQVEKYKKNYLPMQGNPPRRSKSAPPRDLGNLDKGQAASPREPLEPLNFPDPEYKEEEEDQDIQGEISHPDGKVEKVYKNGCRVILFPNGTRKEVSADGKTITVTFFNGDVKQVMPDQRVIYYYAAAQTTHTTYPEGLEVLHFSSGQIEKHYPDGRKEITFPDQTVKNLFPDGQEESIFPDGTIVRVQRDGNKLIEFNNGQRELHTAQFKRREYPDGTVKTVYANGHQETKYRSGRIRVKDKEGNVLMDTEL
notes: CPAP (CENPJ), human; also called CENPJ; source: HEK293FT, transfected, in lysate; not shown: FLAG, N-terminal, kept
  fold increase in the amount of CPAP bound, kinase active against kinase inactive PLK4: > 7 fold
